Assay [1] addresses T1, recombinant human CD137-Fc (R&D #838-4B) (human, UniProt Q07011 24-186).
T1 construct: Bought; also called Human CD137 (R&D systems); CD137 (R&D Systems); not shown: Fc part, not described
Briefly: SPR (summary table).

Assay [2] has as its target T2, CD137 chimera 1552 (1409): human CD137 with mouse domains 2B, 3A and 3B (aa 64-118), on FreeStyle 293-F cells (human; mouse, UniProt P20334 63-117).
T2 construct: domain: 2B, 3A and 3B
Briefly: flow cytometry, 293-F transfectants. Background: Flow cytometry measures light scatter and fluorescence of single cells or particles in a stream.

Assay [3] concerns the target T3, CD137 chimera 1555 (1412): human CD137 with mouse domains 1 and 4B and region of unknown function (aa 24-46 … (human; mouse, UniProt P20334 24-45; P20334 139-185).
T3 construct: domain: 1;domain: 4B and region of unknown function
As to the kind of experiment: flow cytometry, 293-F transfectants.

The target of assay [4] is T4, CD137 chimera 1551 (1408): human CD137 with mouse domains 2A, 2B and 3A (aa 47-96), on FreeStyle 293-F cells (human; mouse, UniProt P20334 46-95).
T4 construct: domain: 2A, 2B and 3A
As to the kind of experiment: flow cytometry, 293-F transfectants.

Assay [5] addresses T5, CD137 chimera 1554 (1411): human CD137 with mouse domains 3B, 4A and 4B (aa 97-159), on FreeStyle 293-F cells (human; mouse, UniProt P20334 96-159).
T5 construct: domain: 3B, 4A and 4B
As to the kind of experiment: flow cytometry, 293-F transfectants.

Assay [6] concerns the target construct 1030: full length human CD137, on FreeStyle 293-F cells (human, UniProt Q07011 24-255). As to the kind of experiment: flow cytometry, 293-F transfectants.
Assay [7] has as its target T6, CD137 chimera 1550 (1407): human CD137 with mouse domains 1, 2A and 2B (aa 24-86), on FreeStyle 293-F cells (human; mouse, UniProt P20334 24-85).
T6 construct: domain: 1, 2A and 2B
As to the kind of experiment: flow cytometry, 293-F transfectants.

In assay [8] the target is T7, CD137 chimera 1553 (1410): human CD137 with mouse domains 3A, 3B and 4A (aa 87-133), on FreeStyle 293-F cells (human; mouse, UniProt P20334 86-133).
T7 construct: domain: 3A, 3B and 4A
As to the kind of experiment: flow cytometry, 293-F transfectants.

Assay [9] addresses T8, extracellular part of human CD137 fused to the transmembrane and intracellular part of hCD40, on CHO cells (human, UniProt P25942 194-277, limits assumed).
T8 construct: domain: transmembrane and intracellular part; also called CHO-huCD137; human CD137 over-expressed on CHO cells
As to the kind of experiment: flow cytometry, CHO transfectants (summary table).

For assay [10], the target named is CD137 on primary human CD8+ T cells (human, UniProt Q07011 24-255). Briefly: cell-based or functional assay.
Assay [11] deals with T9, extracellular part of cynomolgus CD137 fused to the transmembrane and intracellular part of hCD40, on CHO … (cynomolgus (Macaca fascicularis); human, UniProt A9YYE7 24-186; P25942 194-277).
T9 construct: extracellular domain;domain: transmembrane and intracellular part; also called CHO-cyCD137; cyno CD137
As to the kind of experiment: flow cytometry, CHO cells; 95% confidence interval. The method, then:
(§1) Binding and EC50 to human and cynomolgus (Macaca fascicularis) CD137 was determined using flow cytometry of CHO cells transfected with human CD137, cynomolgus CD137 or empty vector. The extracellular part of human or cynomolgus CD137 was fused to the transmembrane and intracellular part of human CD40 and cloned into pcDNA3.0. The vector was subsequently stably transfected into CHO cells. […] CD137-transfected and empty vector-transfected cells were incubated with CD137 antibodies for at least 1h at 4° C. to saturate the binding. In order to minimize antibody internalization, 0.05% sodium azide was used in the incubation buffer and all work was performed on ice. […] Directly after staining the cells were fixed with a paraformaldehyde solution (10× concentrate BD CellFIX, BD biosciences #340181). Cells were analyzed by flow cytometry using FACSVerse (BD Biosciences). The median fluorescence intensity (MFI) for each sample was determined and the dose response data was analysed using Graph Pad Prism.
(§2) MFI data was normalized for each antibody, where 0% is defined as the lowest value and 100% is the highest value in the dose titration for each antibody.

For assay [12], the target named is T8, extracellular part of human CD137 fused …. As to the kind of experiment: flow cytometry, CHO cells; 95% confidence interval. The method, then: as §1, §2
Assay [13] deals with T1, recombinant human CD137-Fc (R&D #838-4B). As to the kind of experiment: SPR (summary table); column headed ka (1/s).
For assay [14] the target is unchanged. Briefly: SPR (Biacore), immobilised human CD137, bivalent antibody in flow. The method, then: Human CD137 (R&D systems) was immobilized to the Biacore™ sensorchip, CM5, using conventional amine coupling. The tested antibody and control (serially diluted ½ 10-0.63 nM) were analyzed for binding in HBS-P (GE, #BR-1003-68) at a flow rate of […]. The association was followed for 5 minutes and the dissociation for 15 minutes. Regeneration was performed twice using 10 mM Glycine pH 1.7 for 30 seconds. The kinetic parameters and the affinity constants were calculated using 1:1 Langmuir model.
On the technique in general: SPR reads the build-up and loss of mass on a sensor chip optically.

In assay [15] the target is T9, extracellular part of cynomolgus CD137 …. As to the kind of experiment: flow cytometry, CHO cells; against human CD137. Here is the method: as §1, §2
Assay [16] addresses T1, recombinant human CD137-Fc (R&D #838-4B). Briefly: ELISA, coated CD137-Fc; mean.
Assay [17] has as its target T10, CD40 (Ancell) (UniProt P25942 21-193).
T10 construct: also called CD40-Fc (Ancell #504-820); not shown: Fc part, not described
Briefly: ELISA, coated CD40-Fc. Here is the method:
(§3) ELISA plates (Greiner #655074) were coated with 50 μl/well of recombinant human OX40 (R&D #1493-CD), CD40-Fc (Ancell #504-820) or CD137 (R&D #838-4B) diluted to a final concentration of 0.5 μg/ml in PBS for 1 h at 37° C. or overnight at 4° C. Plates were washed with PBS+0.05% TWEEN20 (PBST), followed by block with PBST+1% bovine serum albumin (BSA). Antibody samples were prepared as serial 1/10 dilutions from 10-0.01 μg/ml in PBST+1% BSA and incubated for 1h in room temperature, followed by detection using a horse radish peroxidase-conjugated anti-human kappa light chain antibody (AbD Serotec #STAR127P) and developed using SuperSignal ELISA Pico Chemiluminescent substrate (Pierce ThermoScientific #37069).
In general terms: ELISA stands for enzyme-linked immunosorbent assay.

Assay [18] concerns the target T11, Human OX40 (R&D systems, #3358_OX) (human, UniProt P43489 29-216).
T11 construct: Bought; Several catalogue numbers are given for it; also called human OX40 (R&D Systems, 3388-OX); OX40-Fc (R&D systems, #3358_OX); not shown: Fc part
T11 sequence: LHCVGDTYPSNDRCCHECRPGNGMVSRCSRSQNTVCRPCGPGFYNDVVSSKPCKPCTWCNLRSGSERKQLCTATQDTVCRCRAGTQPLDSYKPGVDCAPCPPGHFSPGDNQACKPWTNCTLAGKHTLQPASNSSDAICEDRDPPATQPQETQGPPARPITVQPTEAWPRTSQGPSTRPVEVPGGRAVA
Briefly: ELISA, coated recombinant human OX40. Here is the method: as §3

The text below walks through data of US20210238298A1 (ALLIGATOR BIOSCIENCE, published 2021).

One may read the kon as a measure of how fast the partners come together. One may read the EC50 as the concentration at which the effect is half-maximal. What is called koff is a measure of how fast the partners let go of each other.

T1 sequence (Q07011 24-186 limits assumed): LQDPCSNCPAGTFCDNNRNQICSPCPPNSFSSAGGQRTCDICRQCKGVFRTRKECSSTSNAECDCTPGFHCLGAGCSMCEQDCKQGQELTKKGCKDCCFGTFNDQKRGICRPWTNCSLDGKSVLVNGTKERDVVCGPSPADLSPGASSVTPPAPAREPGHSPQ
Chain of CD137 on primary human CD8+ T cells (Q07011 24-255 limits assumed): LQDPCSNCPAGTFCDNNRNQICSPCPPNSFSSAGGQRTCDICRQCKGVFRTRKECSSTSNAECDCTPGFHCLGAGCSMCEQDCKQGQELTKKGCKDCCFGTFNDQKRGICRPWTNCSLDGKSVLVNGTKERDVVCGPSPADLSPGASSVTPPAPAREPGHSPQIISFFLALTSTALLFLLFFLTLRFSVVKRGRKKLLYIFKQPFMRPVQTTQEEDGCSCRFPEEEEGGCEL
T8 sequence (P25942 other isoform, or with tags, fused parts or gaps limits assumed): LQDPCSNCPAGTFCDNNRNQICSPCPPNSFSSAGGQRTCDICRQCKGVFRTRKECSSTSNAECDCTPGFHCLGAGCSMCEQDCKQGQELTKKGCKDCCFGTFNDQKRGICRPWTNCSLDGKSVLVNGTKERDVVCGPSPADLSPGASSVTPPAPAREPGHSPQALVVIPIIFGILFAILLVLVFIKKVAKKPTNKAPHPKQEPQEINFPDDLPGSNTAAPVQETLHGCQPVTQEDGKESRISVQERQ
T9 sequence (P25942 other isoform, or with tags, fused parts or gaps): as the sequence (P25942 other isoform, or with tags, fused parts or gaps limits assumed) above, with P4L, N19S, R50K, T66I, P67S, F69Y, G75E, V149A counted along it
T3 sequence (P20334 other isoform, or with tags, fused parts or gaps mutant limits assumed): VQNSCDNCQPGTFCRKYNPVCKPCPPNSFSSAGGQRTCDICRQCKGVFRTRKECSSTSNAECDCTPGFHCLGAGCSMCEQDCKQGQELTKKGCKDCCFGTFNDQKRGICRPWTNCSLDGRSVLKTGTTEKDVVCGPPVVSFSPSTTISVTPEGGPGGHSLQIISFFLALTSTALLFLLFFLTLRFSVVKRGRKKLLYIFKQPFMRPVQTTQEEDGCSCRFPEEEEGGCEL
T6 sequence (P20334 other isoform, or with tags, fused parts or gaps mutant limits assumed): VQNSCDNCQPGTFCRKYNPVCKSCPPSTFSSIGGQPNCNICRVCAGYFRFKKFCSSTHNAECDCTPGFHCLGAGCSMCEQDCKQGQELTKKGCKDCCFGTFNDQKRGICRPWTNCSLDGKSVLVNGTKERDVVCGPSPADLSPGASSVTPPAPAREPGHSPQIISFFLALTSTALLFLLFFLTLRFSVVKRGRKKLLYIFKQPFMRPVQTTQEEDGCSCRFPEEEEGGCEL
T4 sequence (P20334 other isoform, or with tags, fused parts or gaps mutant limits assumed): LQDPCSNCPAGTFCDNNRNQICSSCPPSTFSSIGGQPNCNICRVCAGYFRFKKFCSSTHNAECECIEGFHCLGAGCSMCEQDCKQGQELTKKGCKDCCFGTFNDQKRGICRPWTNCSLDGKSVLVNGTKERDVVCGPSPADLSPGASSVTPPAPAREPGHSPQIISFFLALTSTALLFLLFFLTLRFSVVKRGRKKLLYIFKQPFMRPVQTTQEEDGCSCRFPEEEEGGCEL
T10 sequence (P25942 21-193 limits assumed): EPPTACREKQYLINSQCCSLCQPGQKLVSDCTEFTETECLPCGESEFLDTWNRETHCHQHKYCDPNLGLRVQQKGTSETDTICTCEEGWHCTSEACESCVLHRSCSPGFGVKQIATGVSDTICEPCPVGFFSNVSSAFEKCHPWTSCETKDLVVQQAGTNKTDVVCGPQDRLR
T7 sequence (P20334 other isoform, or with tags, fused parts or gaps mutant limits assumed): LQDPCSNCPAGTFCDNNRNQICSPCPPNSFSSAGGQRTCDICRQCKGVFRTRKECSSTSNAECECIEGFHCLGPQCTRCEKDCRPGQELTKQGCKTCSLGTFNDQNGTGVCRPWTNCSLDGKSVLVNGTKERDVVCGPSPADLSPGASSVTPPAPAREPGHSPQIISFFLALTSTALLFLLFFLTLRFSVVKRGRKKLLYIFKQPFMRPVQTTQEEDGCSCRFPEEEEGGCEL
T5 sequence (P20334 other isoform, or with tags, fused parts or gaps mutant limits assumed): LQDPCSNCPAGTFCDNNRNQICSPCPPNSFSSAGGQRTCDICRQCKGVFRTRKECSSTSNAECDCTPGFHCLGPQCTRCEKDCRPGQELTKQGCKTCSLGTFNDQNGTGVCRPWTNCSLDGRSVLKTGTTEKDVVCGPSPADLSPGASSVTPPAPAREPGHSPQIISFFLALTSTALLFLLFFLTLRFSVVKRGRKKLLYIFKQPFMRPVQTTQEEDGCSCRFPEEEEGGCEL
Chain of construct 1030: full length human CD137, on FreeStyle 293-F cells (Q07011 24-255 limits assumed): as the sequence (Q07011 24-255 limits assumed) above
T2 sequence (P20334 other isoform, or with tags, fused parts or gaps mutant limits assumed): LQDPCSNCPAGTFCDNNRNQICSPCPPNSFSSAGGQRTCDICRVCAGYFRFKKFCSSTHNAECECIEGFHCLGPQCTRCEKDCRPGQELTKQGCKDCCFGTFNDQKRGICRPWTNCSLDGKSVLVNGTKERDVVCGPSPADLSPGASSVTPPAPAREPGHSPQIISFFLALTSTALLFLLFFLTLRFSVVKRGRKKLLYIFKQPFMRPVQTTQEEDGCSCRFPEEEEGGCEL

B1: anti-CD137 antibody 1618/1619 (antibody, IgG1, V domains shown)
VH: EVQLLESGGGLVQPGGSLRLSCAASGFTFSYGSMYWVRQAPGKGLEWVSSISSGSGSTYYADSVKGRFTISRDNSKNTLYLQMNSLRAEDTAVYYCARSSYYGSYYSIDYWGQGTLVTVSS
VL: DIQMTQSPSSLSASVGDRVTITCRASQSISSYLNWYQQKPGKAPKLLIYAASSLQSGVPSRFSGSGSGTDFTLTISSLQPEDFATYYCQQYYDNLPTFGQGTKLEIK
notes: Produced as IgG; also called 1618-bio
As to B1, the Kd is 100 pM in assay [1] and 107 pM in [14]. Further, the values for the kon in [1] and in assay [14] were 1e+06 M⁻¹ s⁻¹ and 1.02e+06 M⁻¹ s⁻¹, respectively. Also, the “relative binding (MFI sample/isotype control, normalised to full-length human CD137)” value was found to be 1.2 in [2]; 0.12 in assay [3]; 0.67 in assay [4]; 1.01 in assay [5]; 1 in [6]; 0.11 in assay [7]. The “relative binding (MFI sample/isotype control, normalised to full-length human CD137)” value in assay [8] came out at 1.24. For the same molecule, the EC50 in assay [9] is 0.11 to 0.19 µg/mL; in assay [11], 0.086 to 0.15 µg/mL; in assay [12], 0.11 to 0.19 µg/mL; in assay [16], 350 pM. Further, in assay [10], the “Max IFN-γ” value turned out to be 111000 pg/mL. Also, the “Mean IFN-γ” value in assay [10] came to 33600 pg/mL. In addition, in assay [10], the “Min IFN-γ” value was determined as 7380 pg/mL. Further, the values for the koff in assay [13] and in [14] were 0.0001 s⁻¹ and 0.00011 s⁻¹, respectively. Also, in assay [15], the “Ratio, cyno:human (EC50)” value stood at 0.77. Further, the binding result in assay [17] and in [18] was “no binding (tested: 10 µg/ml)” in each case.
